Legend:
[1] = biological target: MYC-Grg5 (in COS-7 cells) (UniProt P63002)
[2] = biological target: GST-fused Grg1 (UniProt Q62440); assay: pull-down; GST-Grg1 or GST-Grg5 from lysed BL21 E. coli incubated with S^35-labelled in vitro translated Sox2 proteins; pulled down with Glutathione-sepharose 4B beads; PAGE gel on a phosphorimager
[3] = biological target: GST-fused Grg5 (UniProt P63002); assay: as above
Chain of GST-fused Grg5 (P63002 whole entry, the tested form may be a part): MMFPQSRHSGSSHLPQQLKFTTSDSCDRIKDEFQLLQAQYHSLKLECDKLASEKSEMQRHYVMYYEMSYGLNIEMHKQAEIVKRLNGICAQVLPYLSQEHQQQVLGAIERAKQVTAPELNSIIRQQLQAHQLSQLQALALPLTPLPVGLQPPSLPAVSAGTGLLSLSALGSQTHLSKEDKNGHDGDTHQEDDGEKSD

Chain of radiolabelled Sox2^M203–209 (in vitro translated) (P48432 whole entry): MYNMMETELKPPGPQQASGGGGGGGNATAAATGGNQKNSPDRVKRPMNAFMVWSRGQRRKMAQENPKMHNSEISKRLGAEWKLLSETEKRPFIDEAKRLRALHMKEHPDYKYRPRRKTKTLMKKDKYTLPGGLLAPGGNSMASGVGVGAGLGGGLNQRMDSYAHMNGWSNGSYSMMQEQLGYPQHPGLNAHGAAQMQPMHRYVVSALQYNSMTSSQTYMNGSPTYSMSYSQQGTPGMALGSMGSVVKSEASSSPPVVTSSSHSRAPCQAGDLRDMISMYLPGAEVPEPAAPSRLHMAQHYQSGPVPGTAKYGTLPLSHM
Chain of Sox2^M203–209 mutant (transfected, COS-7 cells) (P48432 whole entry, change not shown): as the sequence (P48432 whole entry) above
Chain of GST-fused Grg1 (Q62440 whole entry, the tested form may be a part): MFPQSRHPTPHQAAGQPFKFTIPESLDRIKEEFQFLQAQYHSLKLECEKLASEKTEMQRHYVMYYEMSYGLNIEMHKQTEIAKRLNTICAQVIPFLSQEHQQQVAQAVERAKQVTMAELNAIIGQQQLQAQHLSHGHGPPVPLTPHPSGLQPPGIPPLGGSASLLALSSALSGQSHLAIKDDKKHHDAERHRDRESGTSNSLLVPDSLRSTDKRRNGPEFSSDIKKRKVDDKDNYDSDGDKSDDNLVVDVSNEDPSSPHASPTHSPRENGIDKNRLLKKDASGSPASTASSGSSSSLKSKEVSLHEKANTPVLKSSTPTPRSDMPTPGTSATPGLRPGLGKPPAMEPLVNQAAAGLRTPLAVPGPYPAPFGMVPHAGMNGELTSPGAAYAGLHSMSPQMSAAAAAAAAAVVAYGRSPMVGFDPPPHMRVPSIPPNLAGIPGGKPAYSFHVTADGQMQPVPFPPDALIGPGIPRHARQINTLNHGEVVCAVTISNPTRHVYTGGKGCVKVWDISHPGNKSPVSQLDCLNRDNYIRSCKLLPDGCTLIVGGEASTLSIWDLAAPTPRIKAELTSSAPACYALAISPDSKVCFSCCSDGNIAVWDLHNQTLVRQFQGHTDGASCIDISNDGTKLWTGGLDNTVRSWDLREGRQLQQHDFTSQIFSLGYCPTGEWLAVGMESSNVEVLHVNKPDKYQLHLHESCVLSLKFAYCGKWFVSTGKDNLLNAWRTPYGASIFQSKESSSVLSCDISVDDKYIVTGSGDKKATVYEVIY
Chain of MYC-Grg5 (in COS-7 cells) (P63002 whole entry, the tested form may be a part): as the sequence (P63002 whole entry, the tested form may be a part) above

subcellular translocation assay: proportion of co-transfected COS-7 cells with altered distribution of MYC-Grg5, mutant against WT Sox2 [1] [%] | fold decrease in the amount pulled down against WT Sox2 [2] [fold] | fold decrease in the amount pulled down against WT Sox2 [3] [fold] | Substance
50 | – | – | Sox2^M203–209 mutant (transfected, COS-7 cells) (from UniProt P48432 1-319) (natural protein)
– | 4 | 4 | radiolabelled Sox2^M203–209 (in vitro translated) (from UniProt P48432 1-319) (natural protein)

Source: PMC4148960
